Test results taken from PMC11194109, “Structural basis for double-stranded RNA recognition by SID1” (Nucleic Acids Research, 2024).

Target: the molecule itself
Assay: cryo-EM structure; purified cSID1 in 25 mM HEPES pH 7.4, 150 mM NaCl, 0.01% GDN; apo and mixed with 100 uM 50-bp dsRNA; C2 symmetry imposed (the dsRNA complex also refined in C1)

B1: Caenorhabditis elegans systemic RNAi-defective protein 1 (SID1) (natural protein, UniProt Q9GZC8 18-776, looked up)
chain: QNNSTTPSPIITSSNSSVLVFEISSKMKMIEKKLEANTVHVLRLELDQSFILDLTKVAAEIVDSSKYSKEDGVILEVTVSNGRDSFLLKLPTVYPNLKLYTDGKLLNPLVEQDFGAHRKRHRIGDPHFHQNLIVTVQSRLNADIDYRLHVTHLDRAQYDFLKFKTGQTTKTLSNQKLTFVKPIGFFLNCSEQNISQFHVTLYSEDDICANLITVPANESIYDRSVISDKTHNRRVLSFTKRADIFFTETEISMFKSFRIFVFIAPDDSGCSTNTSRKSFNEKKKISFEFKKLENQSYAVPTALMMIFLTTPCLLFLPIVINIIKNSRKLAPSQSNLISFSPVPSEQRDMDLSHDEQQNTSSELENNGEIPAAENQIVEEITAENQETSVEEGNREIQVKIPLKQDSLSLHGQMLQYPVAIILPVLMHTAIEFHKWTTSTMANRDEMCFHNHACARPLGELRAWNNIITNIGYTLYGAIFIVLSICRRGRHEYSHVFGTYECTLLDVTIGVFMVLQSIASATYHICPSDVAFQFDTPCIQVICGLLMVRQWFVRHESPSPAYTNILLVGVVSLNFLISAFSKTSYVRFIIAVIHVIVVGSICLAKERSLGSEKLKTRFFIMAFSMGNFAAIVMYLTLSAFHLNQIATYCFIINCIMYLMYYGCMKVLHSERITSKAKLCGALSLLAWAVAGFFFFQDDTDWTRSAAASRALNKPCLLLGFFGSHDLWHIFGALAGLFTFIFVSFVDDDLINTRKTSINIF
modifications: N-linked glycans (three glycosylation sites observed in BRD2)
notes: signal peptide in the construct; full-length cDNA in pCAG; His6 and FLAG tags were inserted after the signal peptide; also called cSID1; apo-cSID1; source: HEK293F, transiently transfected (pCAG), purified (anti-FLAG M2, Ni-NTA, SEC in GDN)
- stoichiometry N: 2
